Reference: patent US20210353740A1
Values joined by “and” are separate entries in the source; they are usually repeats but may differ in a detail not shown here. Equal entries are not always repeated.

Experiments:
[1] = target: LS-Spy-rTT-FP8v1/PEG2 nanoparticle carrier (HIV-1); experiment: isothermal titration calorimetry (ITC), Fab against conjugate
[2] = target: FP-rTT monomer (HIV-1 Env fusion peptides conjugated to monomeric rTT) (HIV-1); experiment: as above

Substance: VRC34.01 Fab
- competent Fab binding sites per entity (ITC stoichiometry) (binding sites per nanoparticle carrier) [1]: 152 and 402
- competent Fab binding sites per entity (ITC stoichiometry) (binding sites per FP-rTT monomer) [2]: 6
